For this series, the system named is T1, O=C1O[C@H]([C@@H](O)CO)C(O)=C1O.
T1 construct: expressed in transfected cells; host or cells: HEK-TREx cells, tetracycline-induced
The experiment in a line: hSVCT2 direct uptake assay in HEK-TREx-hSVCT2 cells (LC-MS-MS). Type of series: cell-based, human. The following applies: other: HEK-TREx-hSVCT2 cells induced to express hSVCT2. As for the experimental part:
A modified direct uptake assay was developed to determine the ability of test compounds to be transported into HEK-TREx cells induced to over-express hSVCT2. Four concentrations (bracketing the affinity as measured by competition assays) per compound were routinely tested. Non-specific uptake was determined by measuring the uptake into cells not induced to express the transporter (“no tet”).
The direct uptake assays were prepared as follows: Compounds were prepared for assay by diluting a 100 mM stock concentration (in DMSO or water, depending on compound solubility) to the appropriate working concentration. Typically, four concentrations bracketing the IC50 were tested. The highest test concentration for each compound was made in an Eppendorf tube and diluted into HBSS. The samples were robustly vortexed and centrifuged for 10 minutes at 13,200 rpm to spin down any precipitate. The supernatant from these samples (˜150 μl/well) was carefully removed and placed into six wells of row A (cmpd 1: A1-6; cmpd 2: A7-12) or row E (cmpd 3: E1-6; cmpd 4: E7-12) of a 96-well polypropylene “compound” plate. Three additional 2-fold dilutions were made in the subsequent rows (B-D or […]) in HBSS. […]

What is called Km is the substrate concentration at which the rate is half of its maximum.

Take hSVCT2 (Homo sapiens): the Km was 14 µM.

Source of the values: patent US7625718B2, “SVCT2 transporters expressed in blood brain barrier cells” (XenoPort, Inc., priority 2005, dated 2009).
